Where a chain is given by its changes, count along the chain named. Names and notes keep the numbering of the source.
B1: Aspergillus awamori glucoamylase, wild type (unmutated, expressed in Saccharomyces cerevisiae) (Aspergillus awamori) (protein)
chain: ATLDSWLSNEATVARTAILNNIGADGAWVSGADSGIVVASPSTDNPDYFYTWTRDSGLVLKTLVDLFRNGDTSLLSTIENYISAQAIVQGISNPSGDLSSGAGLGEPKFNVDETAYTGSWGRPQRDGPALRATAMIGFGQWLLDNGYTSTATDIVWPLVRNDLSYVAQYWNQTGYDLWEEVNGSSFFTIAVQHRALVEGSAFATAVGSSCSWCDSQAPEILCYLQSFWTGSFILANFDSSRSGKDANTLLGSIHTFDPEAACDDSTFQPCSPRALANHKEVVDSFRSIYTLNDGLSDSEAVAVGRYPEDTYYNGNPWFLCTLAAAEQLYDALYQWDKQGSLEVTDVSLDFFKALYSDAATGTYSSSSSTYSSIVDAVKTFADGFVSIVETHAASNGSMSEQYDKSDGEQLSARDLTWSYAALLTANNRRNSVVPASWGETSASSVPGTCAATSAIGTYSSVTVTSWPSIVATGGTTTTATPTGSGSVTSTSKTTATASKTSTSTSSTSCTTPTAVAVTFDLTATTTYGENIYLVGSISQLGDWETSDGIALSADKYTSSDPLWYVTVTLPAGESFEYKFIRIESDDSVEWESDPNREYTVPQACGTSTATVTDTWR
B2: Aspergillus awamori glucoamylase variant Trp178→Arg (Aspergillus awamori; W202R) (protein)
chain: B1 chain with W178R
B3: Aspergillus awamori glucoamylase variant Leu177→His (Aspergillus awamori; L201H) (protein)
chain: B1 chain with L177H
B4: Aspergillus awamori glucoamylase variant Ser184→His (Ser→His184, S→H184) (Aspergillus awamori; S208H) (protein)
chain: B1 chain with S184H
B5: Aspergillus awamori glucoamylase variant Gly183→Lys (Gly→Lys183, G→K183) (Aspergillus awamori; G207K) (protein)
chain: B1 chain with G183K
B6: Aspergillus awamori glucoamylase variant Ser119→Tyr (Ser→Tyr119, S→Y119) (Aspergillus awamori; S143Y) (protein)
chain: B1 chain with S119Y
B7: Aspergillus awamori glucoamylase variant Asn182→Ala (Aspergillus awamori; N206A) (protein)
chain: B1 chain with N182A

How the values were obtained:
Assay in all cases: purified protein, by the assay type
[1] = substrate: OC[C@H]1O[C@H](OC[C@H]2OC(O)[C@H](O)[C@@H](O)[C@@H]2O)[C@H](O)[C@@H](O)[C@@H]1O
[2] = substrate: OC[C@H]1O[C@H](O[C@H]2[C@H](O)[C@@H](O)[C@@H](O[C@H]3[C@H](O)[C@@H](O)[C@@H](O[C@H]4[C@H](O)[C@@H](O)[C@@H](O[C@H]5[C@H](O)[C@@H](O)[C@@H](O[C@H]6[C@H](O)[C@@H](O)[C@@H](O[C@H]7[C@H](O)[C@@H](O)C(O)O[C@@H]7CO)O[C@@H]6CO)O[C@@H]5CO)O[C@@H]4CO)O[C@@H]3CO)O[C@@H]2CO)[C@H](O)[C@@H](O)[C@@H]1O
[3] = substrate: OC[C@H]1O[C@H](O[C@H]2[C@H](O)[C@@H](O)[C@H](O)O[C@@H]2CO)[C@H](O)[C@@H](O)[C@@H]1O
[4] = other: 45 C., pH 4.5, 0.05M sodium acetate buffer, pH 4.5, 45.0 °C
[5] = other: pH 4.4 and 50° C., pH 4.4, 50.0 °C
[6] = other: 45 C., pH 4.5, 0.05M sodium acetate buffer

Protein | Km ([1]; other: pH 4.4 and 50° C.) [µM] | kcat ([1]; other: pH 4.4 and 50° C.) [s⁻¹] | kcat/Km ([1]; other: pH 4.4 and 50° C.) [M⁻¹ s⁻¹] | Km ([2]; other: pH 4.4 and 50° C.) [µM] | kcat ([2]; other: pH 4.4 and 50° C.) [s⁻¹] | kcat/Km ([2]; other: pH 4.4 and 50° C.) [M⁻¹ s⁻¹] | Km ([3]; other: pH 4.4 and 50° C.) [µM] | kcat ([3]; other: pH 4.4 and 50° C.) [s⁻¹] | kcat/Km ([3]; other: pH 4.4 and 50° C.) [M⁻¹ s⁻¹] | Km [1, 6] [µM] | Km [2, 6] [µM] | Km [3, 6] [µM] | also measured
B1 |  |  |  |  |  |  |  |  |  |  |  |  | Km [1, 4]: 30300 µM; kcat [1, 4]: 0.34 s⁻¹; Km [1, 5]: 36000 µM; kcat [1, 5]: 0.487 ± 0.031 s⁻¹; kcat/Km [1, 5]: 13.5 M⁻¹ s⁻¹; Km [2, 4]: 140 µM; kcat [2, 4]: 66.2 s⁻¹; Km [2, 5]: 220 µM; kcat [2, 5]: 84 ± 2 s⁻¹; kcat/Km [2, 5]: 390000 M⁻¹ s⁻¹; Km [3, 4]: 1400 µM; kcat [3, 4]: 9.1 s⁻¹; Km [3, 5]: 1730 µM; kcat [3, 5]: 14.4 ± 0.5 s⁻¹; kcat/Km [3, 5]: 8300 M⁻¹ s⁻¹
B2 | 73100 | 0.0728 ± 0.0027 | 0.997 | 260 | 16.6 ± 0.4 | 63000 | 1520 | 1.86 ± 0.11 | 1220 |  |  |  | 
B3 | 49700 | 0.0438 ± 0.0018 | 0.881 | 300 | 15.9 ± 0.8 | 53000 | 5300 | 2.6 ± 0.1 | 490 |  |  |  | 
B4 |  |  |  |  |  |  |  |  |  | 26700 | 140 | 900 | 
B5 |  |  |  |  |  |  |  |  |  | 39000 | 140 | 1100 | 
B6 |  |  |  |  |  |  |  |  |  | 66200 | 200 | 1100 | 
B7 | 64300 | 0.397 ± 0.019 | 6.18 | 260 | 65 ± 4 | 250000 | 1380 | 11.6 ± 0.3 | 8400 |  |  |  | 
